Patent publication US20200399712A1, “COMPOSITIONS AND METHODS FOR THE DIAGNOSIS AND DETECTION OF TUMORS AND CANCER PROGNOSIS” (priority 2018, published 2020)
Marks after values point to notes of the source that are not given here.

Columns and labels:
HPV-16 genome = test: qPCR sensitivity against HPV-16 copy number (known-copy HPV-16 DNA among 10 ng normal human DNA); details: for reaction under 30 copies of HPV-16 genome: among 10 ng normal DNA, triplicate qPCR; for number of reactions against 10 HPV-16 copies / number of reactions under 30 HPV-16 copies: samples tested 3 times, 10 ng DNA from healthy individual
Text: All samples were run in triplicates.
To seek the most promising primer-probe set in the viewpoint of sensitivity, Applicants evaluated the sensitivity analysis for these candidate primer-probe sets. […] Therefore, the sensitivity of E6 (FIG. 3A) and E7 (FIG. 3B) was also 30 copies. […] The candidate primer-probe sets were the “Min-4” (FIG. 3C), “Min-5” (FIG. 3D), “Min-6” (FIG. 3E), “Max-10” (FIG. 3F), “E6-11” (FIG. 3G), “E6-13” (FIG. 3H), respectively.
In addition, Applicants performed sensitivity analysis to identify the most sensitive primer/probe set from among the candidate sets.
To validate the function of primer/probe sets, Applicants calculated the slope of delta Rn against cycle threshold for HPV-16 copy number detection from defined HPV copy number DNA derived from CaSki cell line.

HPV-16 = test: qPCR sensitivity against HPV-HNSCC tumor samples diluted among 10 ng normal human DNA; details: for sensitivity under 100 cells / sensitivity under single cells / sensitivity under 10 cells: 32 HPV-HNSCC tumor samples; for sensitivity under single cells: 6.6 pg DNA; for sensitivity under 10 cells: 66 pg DNA; for Sensitivity, 1 cell / Sensitivity, 3 cells / Sensitivity, 10 cells / Sensitivity, 30 cells / Sensitivity, 100 cells: tumor DNA dilution, fraction of 32 samples

B1: BR E1-6: HPV-16 E1 region primer/probe set, SEQ ID NO: 43-45 (nucleic acid)
DNA 1: ATGCACAATTGGCAGACACTAA
DNA 2: AATCCTTTACAATTTTTGCCTGTGA
DNA 3: AGTAATGCAAGTGCCTTTCTAAAAAGTA
modifications: chemistry not given here
HPV-16 genome
  reaction under 30 copies of HPV-16 genome: consistently amplified
  number of reactions against 10 HPV-16 copies: 2 reactions
  number of reactions under 30 HPV-16 copies: 3 reactions
HPV-16 genome; listed as Min-6
  reaction under 30 copies of HPV-16 genome: react consistently
HPV-16
  sensitivity under 100 cells: 87.5%
  sensitivity under single cells: 15.6%
  sensitivity under 10 cells: 62.5%
  Sensitivity, 1 cell: 0.156
  Sensitivity, 3 cells: 0.344
  Sensitivity, 10 cells: 0.625
  Sensitivity, 30 cells: 0.844
  Sensitivity, 100 cells: 0.875
HPV-16; Sample # 1
  Threshold of tumor cell numbers for HPV-16 detection: 150.0 tumor cells
HPV-16; Sample # 2
  Threshold of tumor cell numbers for HPV-16 detection: 150.0 tumor cells
HPV-16; Sample # 3
  Threshold of tumor cell numbers for HPV-16 detection: 30.0 tumor cells
HPV-16; Sample # 4
  Threshold of tumor cell numbers for HPV-16 detection: 30.0 tumor cells
HPV-16; Sample # 5
  Threshold of tumor cell numbers for HPV-16 detection: 30.0 tumor cells
HPV-16; Sample # 6
  Threshold of tumor cell numbers for HPV-16 detection: 50.0 tumor cells
HPV-16; Sample # 7
  Threshold of tumor cell numbers for HPV-16 detection: 150.0 tumor cells
HPV-16; Sample # 8
  Threshold of tumor cell numbers for HPV-16 detection: 15.0 tumor cells
HPV-16; Sample # 9
  Threshold of tumor cell numbers for HPV-16 detection: 30.0 tumor cells
HPV-16; Sample # 10
  Threshold of tumor cell numbers for HPV-16 detection: 6.0 tumor cells
HPV-16; Sample # 11
  Threshold of tumor cell numbers for HPV-16 detection: 6.0 tumor cells
HPV-16; Sample # 12
  Threshold of tumor cell numbers for HPV-16 detection: 30.0 tumor cells
HPV-16; Sample # 13
  Threshold of tumor cell numbers for HPV-16 detection: 6.0 tumor cells
HPV-16; Sample # 14
  Threshold of tumor cell numbers for HPV-16 detection: 6.0 tumor cells
HPV-16; Sample # 15
  Threshold of tumor cell numbers for HPV-16 detection: 6.0 tumor cells
HPV-16; Sample # 16
  Threshold of tumor cell numbers for HPV-16 detection: 30.0 tumor cells
HPV-16; Sample # 17
  Threshold of tumor cell numbers for HPV-16 detection: 6.0 tumor cells
HPV-16; Sample # 18
  Threshold of tumor cell numbers for HPV-16 detection: 1.2 tumor cells
HPV-16; Sample # 19
  Threshold of tumor cell numbers for HPV-16 detection: 1.2 tumor cells
HPV-16; Sample # 20
  Threshold of tumor cell numbers for HPV-16 detection: 6.0 tumor cells
HPV-16; Sample # 21
  Threshold of tumor cell numbers for HPV-16 detection: 1.2 tumor cells
HPV-16; Sample # 22
  Threshold of tumor cell numbers for HPV-16 detection: 0.3 tumor cells
HPV-16; Sample # 23
  Threshold of tumor cell numbers for HPV-16 detection: 1.2 tumor cells
HPV-16; Sample # 24
  Threshold of tumor cell numbers for HPV-16 detection: 1.2 tumor cells
HPV-16; Sample # 25
  Threshold of tumor cell numbers for HPV-16 detection: 1.2 tumor cells
HPV-16; Sample # 26
  Threshold of tumor cell numbers for HPV-16 detection: 0.3 tumor cells
HPV-16; Sample # 27
  Threshold of tumor cell numbers for HPV-16 detection: 0.6 tumor cells
HPV-16; Sample # 28
  Threshold of tumor cell numbers for HPV-16 detection: 0.6 tumor cells
HPV-16; Sample # 29
  Threshold of tumor cell numbers for HPV-16 detection: 3.0 tumor cells
HPV-16; Sample # 30
  Threshold of tumor cell numbers for HPV-16 detection: 150.0 tumor cells
HPV-16; Sample # 31
  Threshold of tumor cell numbers for HPV-16 detection: 0.6 tumor cells
HPV-16; Sample # 32
  Threshold of tumor cell numbers for HPV-16 detection: 9.0 tumor cells

B2: BR E1-4: HPV-16 E1 region primer/probe set, SEQ ID NO: 37-39 (nucleic acid)
DNA 1: ATGCACAATTGGCAGACACTA
DNA 2: ACAATCCTTTACAATTTTTGCCTGT
DNA 3: TAATGCAAGTGCCTTTCTAAAAAGT
modifications: chemistry not given here
HPV-16 genome
  reaction under 30 copies of HPV-16 genome: consistently amplified
  number of reactions against 10 HPV-16 copies: 2 reactions
  number of reactions under 30 HPV-16 copies: 3 reactions
HPV-16 genome; listed as Min-4
  reaction under 30 copies of HPV-16 genome: react consistently
HPV-16
  sensitivity under 100 cells: 93.8%
  sensitivity under single cells: 21.9%
  sensitivity under 10 cells: 78.1%
  Sensitivity, 1 cell: 0.219
  Sensitivity, 3 cells: 0.531*
  Sensitivity, 10 cells: 0.781*
  Sensitivity, 30 cells: 0.875
  Sensitivity, 100 cells: 0.938
HPV-16; Sample # 1
  Threshold of tumor cell numbers for HPV-16 detection: 150.0 tumor cells
HPV-16; Sample # 2
  Threshold of tumor cell numbers for HPV-16 detection: 150.0 tumor cells
HPV-16; Sample # 3
  Threshold of tumor cell numbers for HPV-16 detection: 1.2 tumor cells
HPV-16; Sample # 4
  Threshold of tumor cell numbers for HPV-16 detection: 6.0 tumor cells
HPV-16; Sample # 5
  Threshold of tumor cell numbers for HPV-16 detection: 30.0 tumor cells
HPV-16; Sample # 6
  Threshold of tumor cell numbers for HPV-16 detection: 30.0 tumor cells
HPV-16; Sample # 7
  Threshold of tumor cell numbers for HPV-16 detection: 30.0 tumor cells
HPV-16; Sample # 8
  Threshold of tumor cell numbers for HPV-16 detection: 50.0 tumor cells
HPV-16; Sample # 9
  Threshold of tumor cell numbers for HPV-16 detection: 1.2 tumor cells
HPV-16; Sample # 10
  Threshold of tumor cell numbers for HPV-16 detection: 1.2 tumor cells
HPV-16; Sample # 11
  Threshold of tumor cell numbers for HPV-16 detection: 1.2 tumor cells
HPV-16; Sample # 12
  Threshold of tumor cell numbers for HPV-16 detection: 3.0 tumor cells
HPV-16; Sample # 13
  Threshold of tumor cell numbers for HPV-16 detection: 6.0 tumor cells
HPV-16; Sample # 14
  Threshold of tumor cell numbers for HPV-16 detection: 6.0 tumor cells
HPV-16; Sample # 15
  Threshold of tumor cell numbers for HPV-16 detection: 6.0 tumor cells
HPV-16; Sample # 16
  Threshold of tumor cell numbers for HPV-16 detection: 6.0 tumor cells
HPV-16; Sample # 17
  Threshold of tumor cell numbers for HPV-16 detection: 6.0 tumor cells
HPV-16; Sample # 18
  Threshold of tumor cell numbers for HPV-16 detection: 1.2 tumor cells
HPV-16; Sample # 19
  Threshold of tumor cell numbers for HPV-16 detection: 0.3 tumor cells
HPV-16; Sample # 20
  Threshold of tumor cell numbers for HPV-16 detection: 1.2 tumor cells
HPV-16; Sample # 21
  Threshold of tumor cell numbers for HPV-16 detection: 0.6 tumor cells
HPV-16; Sample # 22
  Threshold of tumor cell numbers for HPV-16 detection: 0.3 tumor cells
HPV-16; Sample # 23
  Threshold of tumor cell numbers for HPV-16 detection: 1.2 tumor cells
HPV-16; Sample # 24
  Threshold of tumor cell numbers for HPV-16 detection: 0.6 tumor cells
HPV-16; Sample # 25
  Threshold of tumor cell numbers for HPV-16 detection: 1.2 tumor cells
HPV-16; Sample # 26
  Threshold of tumor cell numbers for HPV-16 detection: 0.6 tumor cells
HPV-16; Sample # 27
  Threshold of tumor cell numbers for HPV-16 detection: 0.6 tumor cells
HPV-16; Sample # 28
  Threshold of tumor cell numbers for HPV-16 detection: 1.0 tumor cells
HPV-16; Sample # 29
  Threshold of tumor cell numbers for HPV-16 detection: 1.0 tumor cells
HPV-16; Sample # 30
  Threshold of tumor cell numbers for HPV-16 detection: 30.0 tumor cells
HPV-16; Sample # 31
  Threshold of tumor cell numbers for HPV-16 detection: 0.6 tumor cells
HPV-16; Sample # 32
  Threshold of tumor cell numbers for HPV-16 detection: 9.0 tumor cells
